Experiment [1] deals with T1, human FcγRIIA (H167) (human, UniProt P12318 36-218, limits assumed, biotinylated (site not stated)).
T1 construct: also called Fey RIIA (H167)
T1 sequence (looked up): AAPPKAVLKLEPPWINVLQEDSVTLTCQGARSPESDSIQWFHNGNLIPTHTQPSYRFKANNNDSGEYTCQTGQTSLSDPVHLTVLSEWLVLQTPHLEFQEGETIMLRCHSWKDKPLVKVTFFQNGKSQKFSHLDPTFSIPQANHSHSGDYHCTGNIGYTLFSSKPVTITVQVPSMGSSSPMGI
Briefly: SPR (BIAcore 8K), biotinylated FcγRIIA (H167) on SA chip, antibody as analyte, 1:1 binding. On the procedure:
(§1) Antibody kinetics or affinity parameters were measured using BIAcore 8K and freshly fixed biotinylated human Fe γ RIIA(R167)/Fc γ RIIA (H167) SA chips. The experiment was run at 25° C. with a running buffer of 1×HBS-EP+(10 mM HEPES pH 7.4, 150 mM NaCl, 3 mM EDTA, 0.05% Surfactant P20). […] The binding and dissociation times of the antibody were 60 and 90 seconds, respectively. Two zero concentration samples are used to remove background signals. The sample was injected in a multi cycle manner, the analyte can be fully dissociated from the chip surface at the end of each cycle, and no regeneration step was applied. Data analysis was perform using Biacore Insight Evaluation Software (Version 2.0.15.12933). After deducting the reference channel (flow cell 1) and two zero concentration signals, affinity analysis was performed using a 1:1 binding model or steady-state model for curve fitting and calculation of kinetic parameters.
(In general: In SPR one partner is held on a chip, and binding of the other changes the refractive index at the surface.)

The target of experiment [2] is T1, human FcγRIIA (H167). Briefly: SPR, FcγRIIA (H167); against the wild-type Fc antibody Hu033-20. On the procedure:
as §1

Experiment [3] concerns the target T2, human FcγRIIA (R167) (human, UniProt P12318 36-218, limits assumed, biotinylated (site not stated)).
T2 construct: also called Fe γ RIIA(R167); Fcγ RIJA (R167)
T2 sequence (looked up): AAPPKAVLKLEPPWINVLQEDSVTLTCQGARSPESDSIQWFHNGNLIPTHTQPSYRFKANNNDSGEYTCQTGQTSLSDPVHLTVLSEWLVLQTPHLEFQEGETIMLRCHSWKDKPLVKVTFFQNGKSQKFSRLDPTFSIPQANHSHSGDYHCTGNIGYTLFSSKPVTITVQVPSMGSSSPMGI
Briefly: SPR, FcγRIIA (R167); against the wild-type Fc antibody Hu033-20. The method, then: as §1

Experiment [4] has as its target T2, human FcγRIIA (R167). Briefly: SPR (BIAcore 8K), biotinylated FcγRIIA (R167) on SA chip, antibody as analyte, 1:1 binding. On the procedure:
as §1

Experiment [5] addresses T2, human FcγRIIA (R167). Briefly: SPR, FcγRIIA (R167); against the wild-type Fc antibody Hu033-03. On the procedure:
as §1

Experiment [6] has as its target T1, human FcγRIIA (H167). The experiment can be described thus: SPR, FcγRIIA (H167); against the wild-type Fc antibody Hu033-03. On the procedure: as §1

The Kd is the constant that tells how readily two partners part at equilibrium. Higher therefore signals lower affinity. For orientation: koff means the rate constant with which the complex falls apart. A low value points to a long-lived complex. The term kon denotes the rate constant with which the complex forms. Read a low kon as slower complex formation.

B1: Hu033-20-T1 (antibody, human IgG1, kappa)
heavy: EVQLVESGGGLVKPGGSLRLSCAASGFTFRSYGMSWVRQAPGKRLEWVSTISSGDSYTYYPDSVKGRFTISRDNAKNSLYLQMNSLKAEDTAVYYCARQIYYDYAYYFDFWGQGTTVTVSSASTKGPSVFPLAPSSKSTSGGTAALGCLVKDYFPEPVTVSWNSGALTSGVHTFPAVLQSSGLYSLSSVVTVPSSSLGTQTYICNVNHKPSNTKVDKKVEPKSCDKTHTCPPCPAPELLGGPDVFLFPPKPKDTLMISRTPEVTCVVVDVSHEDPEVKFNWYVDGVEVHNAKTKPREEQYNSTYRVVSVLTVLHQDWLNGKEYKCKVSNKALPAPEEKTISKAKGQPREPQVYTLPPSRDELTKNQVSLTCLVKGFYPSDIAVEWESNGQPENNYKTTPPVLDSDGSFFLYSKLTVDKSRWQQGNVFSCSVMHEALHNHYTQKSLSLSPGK
light: DIVMTQSPDSLAVSLGERATINCRASESVSFRTSHLMHWYQQKPGQPPKLLIYGASNLESGVPDRFSGSGSGTDFTLTISSLQAEDVAVYYCQQSIEDPPTFGGGTKVEIKRTVAAPSVFIFPPSDEQLKSGTASVVCLLNNFYPREAKVQWKVDNALQSGNSQESVTEQDSKDSTYSLSSTLTLSKADYEKHKVYACEVTHQGLSSPVTKSFNRGEC
notes: Fc-mutated Hu033-20 (IgG1)
Consider B1, for which the results for the Kd in experiment [1] and in experiment [4] were 489 nM and 312 nM, respectively. The off-rate (koff) came to 0.242 s⁻¹ in experiment [1] and 0.249 s⁻¹ in experiment [4]. Also, the kon in experiment [1] was 494000 M⁻¹ s⁻¹; in experiment [4], 798000 M⁻¹ s⁻¹. In addition, the Multiple of affinity came out at 2.5 fold in experiment [2] and 5.1 fold in experiment [3].

B2: Hu033-03-T1 (antibody, human IgG1, kappa)
heavy: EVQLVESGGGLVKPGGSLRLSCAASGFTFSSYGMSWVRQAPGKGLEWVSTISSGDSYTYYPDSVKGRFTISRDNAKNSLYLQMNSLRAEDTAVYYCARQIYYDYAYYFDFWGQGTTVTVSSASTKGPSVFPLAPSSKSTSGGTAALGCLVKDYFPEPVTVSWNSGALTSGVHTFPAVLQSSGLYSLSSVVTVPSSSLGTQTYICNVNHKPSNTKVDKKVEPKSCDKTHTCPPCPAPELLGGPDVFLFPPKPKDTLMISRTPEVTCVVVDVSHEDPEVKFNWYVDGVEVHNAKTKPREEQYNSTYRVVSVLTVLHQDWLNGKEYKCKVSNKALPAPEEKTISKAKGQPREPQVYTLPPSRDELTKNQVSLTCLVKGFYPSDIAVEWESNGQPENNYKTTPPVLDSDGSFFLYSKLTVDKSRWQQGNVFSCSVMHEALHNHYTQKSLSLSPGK
light: DIVLTQSPASLAVSPGQRATITCRASESVSFRTSHLMHWYQQKPGQPPKLLIYGASNLESGVPARFSGSGSETDFTLTINPVEAEDTANYFCQQSIEDPPTFGGGTKVEIKRTVAAPSVFIFPPSDEQLKSGTASVVCLLNNFYPREAKVQWKVDNALQSGNSQESVTEQDSKDSTYSLSSTLTLSKADYEKHKVYACEVTHQGLSSPVTKSFNRGEC
notes: Fc-mutated Hu033-03 (IgG1)
In experiment [1], B2 returned a Kd of 490 nM, a koff of 0.23 s⁻¹ and a kon of 470000 M⁻¹ s⁻¹. The same molecule gave a Multiple of affinity in experiment [5] of 4 fold. The Multiple of affinity in experiment [6] worked out at 2.3 fold. In experiment [4], this molecule yielded a Kd of 310 nM, a koff of 0.232 s⁻¹ and a kon of 750000 M⁻¹ s⁻¹.

B3: Hu033-03-T2 (antibody, human IgG1, kappa)
heavy: EVQLVESGGGLVKPGGSLRLSCAASGFTFSSYGMSWVRQAPGKGLEWVSTISSGDSYTYYPDSVKGRFTISRDNAKNSLYLQMNSLRAEDTAVYYCARQIYYDYAYYFDFWGQGTTVTVSSASTKGPSVFPLAPSSKSTSGGTAALGCLVKDYFPEPVTVSWNSGALTSGVHTFPAVLQSSGLYSLSSVVTVPSSSLGTQTYICNVNHKPSNTKVDKKVEPKSCDKTHTCPPCPAPELLAGPDVFLFPPKPKDTLMISRTPEVTCVVVDVSHEDPEVKFNWYVDGVEVHNAKTKPREEQYNSTYRVVSVLTVLHQDWLNGKEYKCKVSNKALPAPEEKTISKAKGQPREPQVYTLPPSRDELTKNQVSLTCLVKGFYPSDIAVEWESNGQPENNYKTTPPVLDSDGSFFLYSKLTVDKSRWQQGNVFSCSVMHEALHNHYTQKSLSLSPGK
light: DIVLTQSPASLAVSPGQRATITCRASESVSFRTSHLMHWYQQKPGQPPKLLIYGASNLESGVPARFSGSGSETDFTLTINPVEAEDTANYFCQQSIEDPPTFGGGTKVEIKRTVAAPSVFIFPPSDEQLKSGTASVVCLLNNFYPREAKVQWKVDNALQSGNSQESVTEQDSKDSTYSLSSTLTLSKADYEKHKVYACEVTHQGLSSPVTKSFNRGEC
notes: Fc-mutated Hu033-03 (IgG1)
In experiment [1], B3 returned a Kd of 103 nM, a koff of 0.0585 s⁻¹ and a kon of 570000 M⁻¹ s⁻¹. The Multiple of affinity in experiment [5] came to 13.7 fold. The Multiple of affinity in experiment [6] stood at 10 fold. Moreover, in experiment [4], binding was characterised by a dissociation constant (Kd) of 45.8 nM, the koff is 0.0899 s⁻¹ and the kon was 1.96e+06 M⁻¹ s⁻¹.

B4: Hu033-03-T3 (antibody, human IgG1, kappa)
heavy: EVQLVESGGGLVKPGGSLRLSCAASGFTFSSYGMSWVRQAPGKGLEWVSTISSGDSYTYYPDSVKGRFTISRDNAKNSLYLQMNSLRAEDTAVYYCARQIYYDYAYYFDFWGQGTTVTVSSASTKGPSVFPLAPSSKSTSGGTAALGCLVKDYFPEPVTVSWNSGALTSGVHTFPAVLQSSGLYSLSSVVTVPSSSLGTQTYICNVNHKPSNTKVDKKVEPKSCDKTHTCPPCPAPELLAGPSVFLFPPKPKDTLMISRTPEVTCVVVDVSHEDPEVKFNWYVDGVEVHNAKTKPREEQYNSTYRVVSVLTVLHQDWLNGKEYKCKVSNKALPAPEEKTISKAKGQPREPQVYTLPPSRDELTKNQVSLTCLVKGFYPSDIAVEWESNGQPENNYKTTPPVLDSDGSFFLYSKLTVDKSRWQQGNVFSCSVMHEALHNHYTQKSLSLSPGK
light: DIVLTQSPASLAVSPGQRATITCRASESVSFRTSHLMHWYQQKPGQPPKLLIYGASNLESGVPARFSGSGSETDFTLTINPVEAEDTANYFCQQSIEDPPTFGGGTKVEIKRTVAAPSVFIFPPSDEQLKSGTASVVCLLNNFYPREAKVQWKVDNALQSGNSQESVTEQDSKDSTYSLSSTLTLSKADYEKHKVYACEVTHQGLSSPVTKSFNRGEC
notes: Fc-mutated Hu033-03 (IgG1)
For B4, the Kd in experiment [1] was found to be 162 nM; in experiment [4], 303 nM. Further, the values for the koff in experiment [1] and in experiment [4] were 0.0894 s⁻¹ and 0.225 s⁻¹, respectively. In addition, the values for the kon in experiment [1] and in experiment [4] were 551000 M⁻¹ s⁻¹ and 741000 M⁻¹ s⁻¹, respectively. In addition, the figures for the Multiple of affinity in experiment [5] and in experiment [6] were 4.4 fold and 7.3 fold, respectively.

The record behind these values is US20250346673A1 (DUALITY BIOLOGICS SUZHOU, published 2025).
